Here are results for 1 protein from US20160244802A1 (UNIVERSITY OF NORTH CAROLINA AT CHAPEL HILL, published 2016).

This data set deals with the molecule itself. As to the kind of experiment: gel filtration (Sephacryl S300) native size against about 150 kDa on SDS-PAGE; inference. The method, then: The bound proteins were eluted with a 12-cv linear gradient from BD50 to BD450. The flow-through containing the HDM activity was adjusted to 700 mM ammonium sulfate before it was loaded onto a 22 mL Phenyl Sepharose® column (Pharmacia). The bound proteins were eluted with a cv linear gradient from BD700 to BD0. The active fractions, which eluted from 10-BD150-BD50, were combined and concentrated to 5 mL before they were loaded onto a 120 mL Sephacyl® S300 gel filtration column (Pharmacia). The active fractions, which eluted around 300 kDa, were pooled and loaded onto a 1 mL MonoS® column (Pharmacia) equilibrated with BC50. Bound proteins were eluted with a 20-cv linear gradient from BC50 to BC400. The active fractions eluted from BC100 to BC150. […]
To identify the protein(s) responsible for this demethylase activity, we monitored the enzymatic activity through five chromatography columns (Scheme 5). After purification of the 0.3 M P11 fraction through DEAE5PW and Phenyl Sepharose® columns, we determined that the native mass of the enzymatic activity was about 300 kDa as assessed by a Sephacyl® S300 column (FIG. 9A). […] To verify that JMJD1A was responsible for the detected demethylase activity, an antibody against this protein was generated and used to immunoprecipitate JMJD1A from the MonoS® column fractions 21-29. […]
(In general: In gel filtration, larger molecules generally elute earlier.)

B1: native JHDM2A (JMJD1A) purified from HeLa cells (enzyme)
chain: MVLTLGESWPVLVGRRFLSLSAADGSDGSHDSWDVERVAEWPWLSGTIRAVSHTDVTKKDLKVCVEFDGESWRKRRWIEVYSLLRRAFLVEHNLVLAERKSPEISERIVQWPAITYKPLLDKAGLGSITSVRFLGDQQRVFLSKDLLKPIQDVNSLRLSLTDNQIVSKEFQALIVKHLDESHLLKGDKNLVGSEVKIYSLDPSTQWFSATVINGNPASKTLQVNCEEIPALKIVDPSLIHVEVVHDNLVTCGNSARIGAVKRKSSENNGTLVSKQAKSCSEASPSMCPVQSVPTTVFKEILLGCTAATPPSKDPRQQSTPQAANSPPNLGAKIPQGCHKQSLPEEISSCLNTKSEALRTKPDVCKAGLLSKSSQIGTGDLKILTEPKGSCTQPKTNTDQENRLESVPQALTGLPKECLPTKASSKAELEIANPPELQKHLEHAPSPSDVSNAPEVKAGVNSDSPNNCSGKKVEPSALACRSQNLKESSVKVDNESCCSRSNNKIQNAPSRKSVLTDPAKLKKLQQSGEAFVQDDSCVNIVAQLPKCRECRLDSLRKDKEQQKDSPVFCRFFHFRRLQFNKHGVLRVEGFLTPNKYDNEAIGLWLPLTKNVVGIDLDTAKYILANIGDHFCQMVISEKEAMSTIEPHRQVAWKRAVKGVREMCDVCDTTIFNLHWVCPRCGFGVCVDCYRMKRKNCQQGAAYKTFSWLKCVKSQIHEPENLMPTQIIPGKALYDVGDIVHSVRAKWGIKANCPCSNRQFKLFSKPASKEDLKQTSLAGEKPTLGAVLQQNPSVLEPAAVGGEAASKPAGSMKPACPASTSPLNWLADLTSGNVNKENKEKQPTMPILKNEIKCLPPLPPLSKSSTVLHTFNSTILTPVSNNNSGFLRNLLNSSTGKTENGLKNTPKILDDIFASLVQNKTTSDLSKRPQGLTIKPSILGFDTPHYWLCDNRLLCLQDPNNKSNWNVFRECWKQGQPVMVSGVHHKLNSELWKPESFRKEFGEQEVDLVNCRTNEIITGATVGDFWDGFEDVPNRLKNEKEPMVLKLKDWPPGEDFRDMMPSRFDDLMANIPLPEYTRRDGKLNLASRLPNYFVRPDLGPKMYNAYGLITPEDRKYGTTNLHLDVSDAANVMVYVGIPKGQCEQEEEVLKTIQDGDSDELTIKRFIEGKEKPGALWHIYAAKDTEKIREFLKKVSEEQGQENPADHDPIHDQSWYLDRSLRKRLHQEYGVQGWAIVQFLGDVVFIPAGAPHQVHNLYSCIKVAEDFVSPEHVKHCFWLTQEFRYLSQTHTNHEDKLQVKNVIYHAVKDAVAMLKASESSFGKP
notes: Endogenous protein in MonoS column fractions from HeLa nuclear extract; also called TSGA
With B1, the binding result was “binds”.
